In the DeepSol protein solubility set:

experiment: soluble on expression in E. coli; label from the status in PepcDB or PDB records

| Sequence | soluble on expression in E. coli |
| --- | --- |
| MVTPLTGTHEGVSCDGCAFTAFAGNRYKCLRCSDYDLCFSCFTTKNYGDQQTIADIPIHDESHPMQLILSSVDFDLVYQGDPTRHYDERKIVSFTCPYCNITGLTERQFGTHVLSQHPEAPGYSVICPLCIGNTEMEHIQSKETENLSVHWTEIHLHTMENLFRSTEPITTRPVQRRPMLARRGNRAGVSRTAAQGRPLQDEIGAEMAALLRNMGPDSVEDIRRFTEMMTVPLLPGIRSSQRLMTSTGDRPTVVVESAVTHQDPNVQQVIRPLATIPIYPPTSDESGDETPQPAADSADESEDDNDIQELDDMQPIVEDEALKKDEFWKTLKTRISEEDVDLILETMKSTAKVKEDIDDKMPVWTQRPLKRLANAAQVTTTSDSEGDPGWLPLSFETTPIRSTGCGGYWSDKRFLRPRKMQREQSVASSNAEIMEKAEIALALIRASCLHEPVFTDPTKPDIALKEALQHLRLGEKPAKMMEYQAAEELVNMPERDPITTGEMEVEIPDFTARGYGQIVDGNIPLGVVPEADEAITNSEDEEIVGGETSGDDEDEQEDDENDSQDSSVPEEINID | not soluble |
| MCKNPISIIIRIQHNIKVLPEILKACEQLHPLEIILTINGYIDDSIDIAQSYNCKIITLEEPSELNNCYVIGATKAKGKYLLFLDANYIIQSSLLTQFLQPLLDESADIVLNNLDDFFYQKQKPTIEMIWQQVTNHFFHRPDLHVNSLLFPPYAITKEILDAITPESLLNPILAQMKIIKNKFRISNHFKISIPQIPSFPSKQLIRYHLEAIENWVNILQDSRGNYTDNNRRRDIILELQNGEQRAIPKIITGKKFYSNTYGNKQLSIIIPVQNEEKTIESIIFEVQKLKPLEIIIIVNGSTDKTEELAKNCGATVITYKEALGIDTGRAVGAYFAKGDILLFIDGDFLIPSSDLLPFVQSVQNGTDLALNKLEHYYMYRVPYTIVTACKHVVNLACNRKDLGMGSTTAVPHAFSRKCIDTIGFDSLLSPTLSQVKTILAGLHVQNVHSIDVDKINRVRPEKHFSQEGYLSLATQQIIGDHIEAISYLIEQKRNTEYFLEHHHHHH | not soluble |
| MGSDKIHHHHHHMTKKLTNQLIDVTSGRNFRELGGYETNSGKKIKMHKLLRTGNLADLSPFDKQFLTDYGVKYDVDFRSKEEVERQPDRVPDGVEYIYDPVFSEDLTNSSKSINDLNTQASDDADFGFNHMHYAYEDMIESESAQKAYRKFFDVLLKNDVEGESVIFHCTAGKDRTGFGALLILSALGVPFNTIKKDYLLTNITTKEFVESMVEHARQNGRNENVLQSIRDIQSVRAEYIDHAVKIINDDYGSIHNYLRDMMKLSSADIMKLRNIYLED | not soluble |
| MAGDPMEAIMKKLIGIATAAVFGLGIFTSSANAETVVTTDVLNVRENPTTESKVVGKLLNGNKIDVQNTENGWSKITLDGKDAFVSAEFTKSIYYVTANVLNVRAEANTNSEVLGKLKKDDVIETTNQVQNEWLQFEYNGKTAYVHVPFLTGTAPVIEKQETTAPAKAAAPAKAQAPVAQAKPAAKPAVKAAETNTPSGGRELTVVATAYTAHPSENGGTYGGRVLTAMGHDLTANPNMKMIAVDPKVIPLGSKVWVEGYGEAIAGDTGGAIKGTRIDILLGSDSAAQKWGRKTVKVKILKLEHHHHHH | not soluble |
| GPGSMSASNSCTVEEVRKEYAKLLDPQEPLDSRMRELYRLKEDCLKTVAGVTVILEAIDTTDSVLLQHELAYNAGQSGREEAVPELERILRTTSYDVVTRHEAAEALGAIGSPLALQVLETHSAPTTEPEASIRETCELALARIAMKETKGDAAVAPPSGCEFVSVDPSPAFSALYSSTDEPVPLTVEELEAVLLDTSGRTRLFRRYMAMFTLRNLATEAAVAALCRGLREDTISALFRHEVAFVLGQLERPSSQPALIAALKDEEEAPMVRHEAAEALGAIADPATLPVLESYATHHEPIVRDSCVVALEMHKYWAHFNSLAHQQQEA | soluble |
| MGSDKIHHHHHHMSYSDVIAIAGGWEGYRVAGARTIVTSDAKRIEVELIALSQDEMVCGSCGGRCTSVHETTKRVIRDLPILDAQTYLIVHRRRLLCPQCGPTLERLSWLAKYARVTRRLAESVARLCGVVSVKHVAQYLGLSWDQVKEIDKRSLTERVGTVDLSNIEVLGMDEFALHKGHRYATVIIEPYRKEVLWIGKGRSRESIRPFFTQLGPHGCKRLKAVVMDMNASYEEEIKQHSPQADIVYDLFHVVAKYGREVIDRVRVDEANRLKEDKKARKVVKTSRWLLLRNSENVKGDDMLRLQELLEANRSLLTVYLLKDDLKQLWKFTCIEEAGLFWEQWHQRAMESGIPPLILFARRLKGYLQGILNHCLWPLHTGILEGINNKIKVIKRMAYGFRDHEYFFLKIRAAFPGIPG | not soluble |
| MSEAAIAKKETLVQAAAEKFESAASVVIVDYRGLTVEEVTNLRKQLRDAGVEMKVIKNSILSRAAKKVGLDGLDEVFTGPTAVAFSNDDVVAPAKIIDEFAKDAKALEIKGGVIEGKVSSVEQITALAKLPNREGLLSMLLSVLQAPVRNVAYAVKAVAEKNEEVA | not soluble |
| SNAMGEAATKSDRQQNQTRLWLNILRLHGLVFGDLNRQLLDETGLSLAKFDAMAQLARNPDGLSMGKLSGALKVTNGNVSGLVNRLIKDGMVVKAMSADDRRSFSAKLTDAGLTTFKQASEAHNRILAELLRAVSDQDMVEASAALRGILESMQTGASLD | soluble |
| MGSDKIHHHHHHMQIVPLHSSHYPHIASVFHQAVRAAAGKGYTQAQCEAWSRGVRDRRYWRSRLGRSLVLVALNVDEVVGFIDCELEHPDKGYIGHLYVAPTHQGRGIGGKLLDALIRQAPALGIGSLTTDASLHSEPLFAAKGFSNVGRYFQQKSGQVLPGFAMTLPLPFYIDRMQGSDLASIARLFHEAVQGASEYYSEAERHAWSAALRDEATWQGKLAPSKVWVARKDSGIMGFINLLPKSIGEAEIDCLFTSPVLTRCGVATSLYWVLEQQARRDGVRRLSVEASYFARPFFQSRGFTELSRNEHPRHGQILVNFSMEKWLSRPEGG | not soluble |
| MFVFDATPLIYLAKAERLSLLSRLDASRLIPQRVYEEVVTVGLDAGYPDARRIEQSVEEGTFDVVSVPETTLFDRLSGNPNVSDADVAVLALAADHGATAVMDDAYGRDIAAVEAIETRGTAYLVLSLVRDGELEADDARETLEAMLDAGWHCSPSLYSKLLSKLEELAVGGADNRLEHHHHHH | not soluble |
| MGSDKIHHHHHHMLVFFKERLVLLSVPKTGTTAYQTALRARADIVVSDPPELKHAPIYRYDRFFRPIFEKMFGVEMEIMAVVREPVDWLGSWYRYRRRPFMQGKPNATHGLSFDDFVTAYMQGKRPGFANVGSQARFLTPRPNGCTVSHLFKYENQPGIRAFLQDRLQTEIAPPRENVSPDLPLDLSPEIAERLRRKCAEEFDLHASAT | not soluble |
| MSFTVIIPARFASSRLPGKPLADIKGKPMIQHVFEKALQSGASRVIIATDNENVADVAKSFGAEVCMTSVNHNSGTERLAEVVEKLAIPDNEIIVNIQGDEPLIPPVIVRQVADNLAKFNVNMASLAVKIHDAEELFNPNAVKVLTDKDGYVLYFSRSVIPYDRDQFMNLQDVQKVQLSDAYLRHIGIYAYRAGFIKQYVQWAPTQLENLEKLEQLRVLYNGERIHVELAKEVPAVGVDTAEDLEKVRAILAANGSHHHHHH | soluble |
| MPKRKLKTPESTETTKICKKNDNFSDFWSEKLDEIGSAHLADTKSRTKSAVKHELTGIGSSSIYKGTRDLQLPKSEDLSNFGWNEGVLEHLQVLLEEIEVDEKKEEQIEAERGAILKFTAEYRDLLAITGDQGGYRSIYCAHIIQHLIRNKNLIIGNKRKLEIASTQEGGADEETIESCRDSGFVRPVVLVLCAFKKDAYDIINRLRRILHGDDEGKSEVWNKNRFEEEYSGPTELPTTRADFPDDHKELLLGNNDDAFRIGLAISKKVLKLYEKFEKADILVCSPLGLRMILNGDDGNEAHLISSINMTIVDRTDIMLQQNWENLQLIFSHLHSQPSKIDVDISRVRKLYLDGQSRHFSQLLMFSRYSHELFTSLMLQNSQNHRGLVIAKPKQSGTLSNIEIPLCQELHKFEVKDPNETSDLRFKYFVDKIMPSLIPRTLIVIPSYFDFVRVRNHLKKAEESFVMCHEYATRAKVDRAREMFFHERKSYLVVTERWYFFNRRHLTGVHRVVFYQLPSHPLFYSEFINMSDAETSQRFLAVLLLCKYDRIRLENTFGTEMAAAVMSNKQAVQAIVSQ | not soluble |
| MSNKTSIEGLSALLHTLMLIPQHRWITVRELQQQLALLDIHRTTRSIKRYLDEVIVEVFNVECDSMSMPHVYRKTSEQLLKLNKQEMLYWQLTNKYLLPLVPDALNYGQGSSSERDKPLPHKASAHSKEQEWLAKVHVVLPTIREWNDEQRQVLNAVHTALLHNRMLKISSQVLQQEKALIEPLGLSVQCDALLLLFRLSGQHTIRTLALPLIDEATVSTFSFTYPTDFNLERFMREHDGVSAS | not soluble |
| MPTPAYIKIVGQTQGNITAGAFTADSVGNVFQQGHEDQILVQEIKHEVTTPTDPQSGQPSGQRVHKPFIFTSSLNKATPLMYQALATGEMLPTVEVSWYRTSSEGKQEHFFTTTLEDATIVSINTVLPHALDKDNENYTQLVEVSLAYRKITWAHDVANTEGSDDWRAPAA | not soluble |
| MSLRPVKLAALLPLTGPFAFAGNAGREGFVDGVDYVNEVLGGIAGRKLELIVEDTGYDVAKGTAAFNRVLSRERPDELLFVYGDSTGLSKALAPEIARIGLPYSATSFANELADPEKYPTIFVFGPTYNDMMEALLRQIRLQKGKARIALVYSNTEFGRDPIPYVKERAKALGMEVVHEEVTPPAFTDATPVVLNLRRANPDFVLLQGYALSAEPLILRAAREQGLRAQFMGTYYSAELVLIQRAGPAAEGFTVTYHNPYWYDTLVPAVDEMRKFRQRKGRDSSYRPTYYMGSLAVALGVAEAMRRAAQAGKLTRAGVVEYLEKIGDYNAMGLVRGYQFVNHRIPYTKLYRASVKDGRFNAITDWLKLAEGHHHHHH | soluble |
| YDPYQHIEKATNRRNMVLNAMVETGDITKAEGDKYKATKIVLNDQSKDPLANKYPWYVDAVINEAVNEADITQDEIMQKGY | not soluble |
| MSLAQTSDWDSVVAQAKKEGSVTFNVWYLQPQWRSFVKDFEQKYDIKVRIPEGSIDGNMNKLLAETRREQGKIDVIALSIAQLPITMGAKSLAKVDDLPGYQDAYHQLQNVDTQGYAVAFWGNQTGFAYDPQQMGDRPLPQTMEELQRFIDANPKRFGYNDPNNGGAGEAFIQRIVTTLSGDFSSESDTVDPTVIKDWQKGWQWFASNNNNITRTASGADSLTRLNDGELMLTPAWEDHLSGLQKTGAITSRLKFYVPEFGMPGGGNIASIAANSPHPAASRVFLNWLIQADTQKALNEAFGSTPMNKQLNADVKQPDTPVQFYGKAYSMQMKKEFARQVMTREGHHHHHH | soluble |
